{"source": "the DeepSol protein solubility set", "data": [{"assay": "soluble on expression in E. coli; label from the status in PepcDB or PDB records", "values": [{"sequence": "MRVVALGDLHANFPLLWRILRREGLADEGFRPTEALRSGRVRLVLLGDLVHPKTPRDYARLTGLEAYDPEDPFHLRLAAGAQIRELFRLKAFQEEAGDHVTILLGNHEAALLEGSPILGNRHLKHLEFHPEHGGKALPEALRSWMASFPKELVLKGVHFAHVGPVPWLQEYDGLFYAQSEAKTWWFLTPEYVERMGYRYGVYGHTPMPDGILLKDRFALIDALDLGEYLVLDPEADPPRPEVRRLHE", "soluble on expression in E. coli": "soluble"}, {"sequence": "EPAHGRQHTPCLFCDRLFASAEETFSHCKLEHQFNIDSMVHKHGLEFYGYIKLINFIRLKNPTVEYMNSIYNPVPWEKDEYLKPVLEDDLLLQFDVEDLYEPVSTPFS", "soluble on expression in E. coli": "soluble"}, {"sequence": "MEEPINVLLLGMDIGDTSDVSNKDAKRTDTIILANFDPITKEAKLISIPRDTRVKIGGKSQKINAAYPIGGEKLVKQLVGNILGVKVDYVVKVDYEGFRGIIDAIGGIDMYIEQDMNYDDPGQDLHIHFNKGETVHLDGKKAEEFFRWRKNNDGTGLVNGDVDRIKNQQKFINAVIDKVLSVSTITKIDSIAEILNKNIETNIPLDVTVAYGLKGLETDKNNIKMMTLPGEGKYVGNVSYYIPDEKATKELRSQLNSSNLSGRKNVIPSAARGDLSIKVLNCTKINGLAANVQKQLNENGYDKVDVGNGDPREKSEILIKDESSRAFMENDLKIENIKKGISSKYDGNGTYDVVILLGKDFKNFGEMKLEHHHHHH", "soluble on expression in E. coli": "soluble"}, {"sequence": "MRLFHTSDWHLGQNLHGQERDFEHACFLTWLLARLAERQPDVLLIAGDIFDTVNPPVKAQERLYDFIVNAHEQQPLLTIVMIAGNHDSGSRIELPAPLMRRLRTHALGRVMWLNDGVLDAERLLLPLPDANGDIKAWCLALPFLRPAEVTGPTLGDDYLRGIGRVHELLIDAANLKRQPGQALIAISHAHMAGGSVSEDSERSLIIGNAEALPASLFGPSITYVALGHLHKPQRVNGEERIRYSGSPIPLSFSEIGYQHQILEINCDGDTLTSVEPCLIPRAVNLQRLGPAPLADLLVQLKSLPDIDLLADPDRQPWLEVRVRLDEPQPDLRNQIETALQGKAVRLVRIGAEYAGKGSADGSDGEAGLIELDQLTPQELFSRAWQDNFGSEVDEQTLTDFATLLREVQQESEQP", "soluble on expression in E. coli": "not soluble"}, {"sequence": "MNYGFVKVAAAVPHVKVADCKFNVERIESQIAIAEGKGVQIIVFPEMSITGYTCGDLFGQQILLEEAEMGLMQILNNTRQLDIISIVGMPVVVNSTVINAAVVIQKGKVLGVAAKTYLPNYKEFYEQRWFTSALQLTEDTVRLCGQIVPIGANLLFETSDTTFGIEICEDLWATIPPSSSLALQGAEIIFNMSADNEGIGKHHYLCSLISQQSARCIAGYVFSSCGFGESTTDVVFAGNGLIYENGSLLARSKRFCMEEQLIISEIDVERIRAERRINTTFAASQGNPGDKKAISVATEFVNSKELTLTRDFNSHPFVPQGAELDEHCEEVFSIQIAGLAQRLVHTKAKTAVVGISGGLDSTLALLVCVKTFDKLGLPRKDILGVTMPGFGTTDRTYNNAIDLMKSLGISIREISIQDACIQHFKDIDHDINVHDVTYENSQARERTQILMDIANQTWGMVVGTGDLSELALGWATYNGDHMSMYGVNGSIPKTLVKYLVQWVAENDMDEDAKATLLDIVDTPISPELIPADENLEHHHHHH", "soluble on expression in E. coli": "soluble"}, {"sequence": "MGSDKIHHHHHHLDDYDDDIYDMQAGMPFNAALATVVTPSEIPGEAMIESDNDGVAYVVNPDKLTRFETNNPGQRIFYTYINADNPTGDASKKGPFISIDYLQKILTKRMDTLKENEEDIYGHDGINLITPIMGKTHLTLMFQILGFNSNIKHRISLVATEGTVPDANGYMAVELRHNAEGDRQEYPSSGYVSFPLLDVPGYKEGKLQGFKIKMNTINNGEETVTVSYNKSKSTNFPFIQKGISNTKIK", "soluble on expression in E. coli": "not soluble"}, {"sequence": "MKVGVVGTGFVGSTAAFALVLRGSCSELVLVDRDEDRAQAEAEDIAHAAPVSHGTRVWHGGHSELADAQVVILTAGANQKPGESRLDLLEKNADIFRELVPQITRAAPDAVLLVTSNPVDLLTDLATQLAPGQPVIGSGTVLDSARFRHLMAQHAGVDGTHAHGYVLGEHGDSEVLAWSSAMVAGMPVADFMQAQNLPWNEQVRAKIDEGTRNAAASIIEGKRATYYGIGAALARITEAVLRDRRAVLTVSAPTPEYGVSLSLPRVVGRQGVLSTLHPKLTGDEQQKLEQSAGVLRGFKQQLGL", "soluble on expression in E. coli": "soluble"}, {"sequence": "MGSDKIHHHHHHMSGFSPELIDYLEGKISFEEFERRREERKTREKKSLQEKGKLSAEENPDDSEVPSSSGINSTKSQDKDVSEGETSDGVRKSVHKVFASMLGENEDDEEEEEEEEEEEEEEETPEQPTAGDVFVLEMVLNRETKKMMKEKRPRSKLPRALRGLMGEANIRFARGEREEAILMCMEIIRQAPLAYEPFSTLAMIYEDQGDMEKSLQFELIAAHLNPSDTEEWVRLAEMSLEQDNIKQAIFCYTKALKYEPTNVRYLWERSSLYEQMGDHKMAMDGYRRILNLLSPSDGERFMQLARDMAKSYYEANDVTSAINIIDEAFSKHQGLVSMEDVNIAAELYISNKQYDKALEIITDFSGIVLEKKTSEEGTSEENKAPENVTCTIPDGVPIDITVKLMVCLVHLNILEPLNPLLTTLVEQNPEDMGDLYLDVAEAFLDVGEYNSALPLLSALVCSERYNLAVVWLRHAECLKALGYMERAAESYGKVVDLAPLHLDARISLSTLQQQLGQPEKALEALEPMYDPDTLAQDANAAQQELKLLLHRSTLLFSQGKMYGYVDTLLTMLAMLLKVAMNRAQVCLISSSKSGERHLYLIKVSRDKISDSNDQESANCDAKAIFAVLTSVLTKDDWWNLLLKAIYSLCDLSRFQEAELLVDSSLEYYSFYDDRQKRKELEYFGLSAAILDKNFRKAYNYIRIMVMENVNKPQLWNIFNQVTMHSQDVRHHRFCLRLMLKNPENHALCVLNGHNAFVSGSFKHALGQYVQAFRTHPDEPLYSFCIGLTFIHMASQKYVLRRHALIVQGFSFLNRYLSLRGPCQESFYNLGRGLHQLGLIHLAIHYYQKALELPPLVVEGIELDQLDLRRDIAYNLSLIYQSSGNTGMAQTLLYTYCSI", "soluble on expression in E. coli": "not soluble"}, {"sequence": "MAPKTIFITGANRGIGLGLVRELLKVPGVEALVAGARNIDGAKELQSLAKADARLHLIAVDVSNDGSLENSVKSVSGIVGDRGLNLLINNAGLIESYGTTSAPNRASVLHCIDVNAVSALLASQHFLPLLQKAASHVSGDSLTPDRAAIVNIGSDCASQALNLRGSGPSNSLLAYKMSKVAMLSFSRSMAADFKRLEIPVLITNIHPGWVQTDMGGSNAEISVDESVTKIVASIAKLNGGHQGGLFNRELEEMPL", "soluble on expression in E. coli": "not soluble"}, {"sequence": "MGSDKIHHHHHHNKNTLPDSNGTLVPVGSWYLGLSVGVGALKNPLRGQDNIPLYVLPEFRYYGERFSVENLDVSFTLYDAPAYSLELVGQQNMDGLLFPGDNRRLMASFTGMIPIRSRDVVETAVELPPLYPEHKSMSYMAGVAARYFGWFDAQVLALTDVSKVHHGYEINLSLGKQYNWKNINFEAQFGATYKSSKLTEYYYNGEYQELFYQVYNYRADSAINPYIQLSAAYDLGNNYFVSGNVRNIWLDDTIHHSPIFEDTHLLTYFIGIKKLF", "soluble on expression in E. coli": "not soluble"}, {"sequence": "MGHHHHHHSHMKQKLLVTLLGLSALGASPVFAANTNVDLAEDAYIYGYSIDEAYKFFYHTAVENNYPLNRFQNIRALADDSYTAHPTINNDTLHLMGWLDVAAEPVIVSVPDMDEGRYWILHTMDMGHYTNAAFSSRTRGTKGGQFMFAAQDWQGEVPASVDEVVRVDSNLVKLMGRIMAVNDEDAKVALNYMDQWNIRTLSEYLGKNGPKPVQRTYPDPKKSTWLERVNFVLCDGSMGNADKQWLDKYQSIGVEPCKTDFTPEQLKLAKVGEKKGMEHLVELAPKMTDARTLLGTRDTLGDAPRDIFAEGTYLGQWGLPPIEASYRKSDFDSIGQKLDGSKHDYVMRFKAPNVSEFWSVTIYGNDNRLMAKNDLNRHSRGDRTMKADKDGYYTIYMSANEKGRADDPNFLPVPEKPFYAIMRFYGADDAIQSGEYQMPEIKVVK", "soluble on expression in E. coli": "soluble"}, {"sequence": "MKIAITGATGFVGQRLVERLQAEGHELRILSQRPTVAQQLTGCQVFDTATETSWLAALEGADAVVNLAGEPIAEQRWTPAQKQRLKNSRVQTTRALVTAITAATQKPQVLVTASAIGYYGTSETAQFTEESAAGQDYLAEICQAWEQEAQAVTVSGTRLVTLRIGIVVGPGGAIGKMLGPFKLFAGGPIGSGRQWVSWIQREDLVSLILEAIANPSYQGTYNATAPQAVRMADLSATLGEVLQRPSWLPVPAFALEALLGEGALLVLEGQQVLPKRLEAAGFQFRYPDLKSALQQFLPLEHHHHHH", "soluble on expression in E. coli": "not soluble"}, {"sequence": "MAMKIPKSGYNRFMKEGAQHFKGTDEAVQRNIEACTELASQIRSAYGPNGMNKMVINHIEKLFVTNDAATILKELEIQHPAARIIIMATEMQEKQIGDNTNTVVILAAALLEHAANLIHMGMTPQEVAAGYEQAAEKALEILPTLVVKEATDMKNIEEVRQYIRSAITSKQYDNEDIIADLVAKACVTTCPANSFNFNVDNIRICKIIGSGVHTSTVMNGMVFKRGAEGEIREARDARIAVYTCPFDLTQTETKGTVLIENADELRNFSKGEEAEVEEQVKAIADNARSSILAKFWLMNFSKGEEAEVEEQQVKAIADNGVKVVVAAGKFGDMYLHFLNKYKIMAVRLTSKFDLRRLCRTVGAQPQARICAPAVNLLGHCDSVAVQEIGDENVVVFDKKSETGKVATIIIRGSSQSRIDDVERAVDDAVNTYKALTKDGKLLAGAGAVEIELAKEIESFGAKAPGLEQYAIKKFAHALETLPKAIAENAGMPTTETLTKLYAEHVAGKKNAGIDIWKRETMDAVVNNIFDLYAGKRLAIKLATDAASTILKVDQIIMSKQATGGPKPRGPKAQDEDDDGMA", "soluble on expression in E. coli": "not soluble"}, {"sequence": "SGCIGSRTVGNEVIAVDWKGLKDVDQINMDSTSSLHGSSLHRPSTEQTRTDFSWDGINLSMEDTTSILPKLKRNSNAYGIGALAKSSFSGISRSMKDHVTKPTAMGQGRVAHMIEWQGWGKTPAVQPQHSHESVRRDTDAYSDLSDGEKEARFLAGVMEQFAISEATLMAWSSMDGEDMSVNSTQEPLGCNYSDNYQELMDSQDALAQAPMDGWPHSYVSQGMYCLGSSDAWEASDQSLIASPATGSYLGPAFDDSQPSLHEMGPSQPASGYSALEPPPLLGGDTDWAPGVGAVDLARGPAEEEKRPLAPEEGEDAGCQDLESLSPREDPEMSTTLSRKVSDVTSSGVQSFDEEEGEANN", "soluble on expression in E. coli": "soluble"}, {"sequence": "MGSDKIHHHHHHMEDKLISRYDILVNRYKELVSEKLSRKDFIEYNEILFSAHSCAIEGNSFSVDETRTLKEKGLGMIPKGKTLLEAFEILDHFQAYEYLLKNLDRPLTEELLKETHRLLTEHTLSYKTQYDEIPSNPGEYTTVDMCAGDTIFGDHEQLIKQVPRLLQSTQQVLDSGKIHPMIIAARFHGFYEYLHPFRDGNGRLGRLMSNFILLKKEQPLLIIPGSQREEYITALKYIKKERTDEFLIDFFFRTSIKRMEQEIEEKKNLTENFIRGMEFVRNVKSSNDDISEI", "soluble on expression in E. coli": "not soluble"}, {"sequence": "MAHHHHHHMTLETTPAPTFSSKKELYDWLVKQVEALVHDMSKRFTPQANLVIGLSNTAALCFYELNRFCNPEAALEKLRVNWFGFYLFQAPGLLALGPFQGRPACTEIRVGKGVCGTVAESGESMVVQSVHEFPGHIACDSASKSEIAVPVLIENGSVVAVIDVDSTELGHFSEEDREGLERMAAVLAQHLDFPMARALAVNPALGLPGYSALAGGEKALQPHGDAEAVPQATPVTTTTTTPATVTAVTRIPFFKVEVKQPDVTTKCVGGWQFTRTNLDRIMTQDETKQLQDSLGISALPEIAFQGKTLSVSPESDREHPWLHFSVEALMCSAAEYYQTEEFKTLVNPQLRIPVSAGWESFHFEKYDPKVDWAWRNNFCGLVPDRGRLVERPRDAADAPGINWDILKDTSLLILFYGDFDMMEDDLRDHGMVTSSVKYRVMSSAFFVLFRHFVRVDNHEIWMREVRVFHEFGKTRTPSGVPHIVFLEQLRHVRIAEPVEGVDWKSMSPDAISAKATVLLSREWMLEKVATA", "soluble on expression in E. coli": "not soluble"}]}]}
